Experimental findings from patent publication US20090136516A1 (DUKE UNIVERSITY, published 2009) are described below.

Experiment [1] has as its target T1, human CD20 (human, UniProt P11836 1-297).
T1 construct: whole, on cells; also called cell surface CD20
T1 sequence (looked up): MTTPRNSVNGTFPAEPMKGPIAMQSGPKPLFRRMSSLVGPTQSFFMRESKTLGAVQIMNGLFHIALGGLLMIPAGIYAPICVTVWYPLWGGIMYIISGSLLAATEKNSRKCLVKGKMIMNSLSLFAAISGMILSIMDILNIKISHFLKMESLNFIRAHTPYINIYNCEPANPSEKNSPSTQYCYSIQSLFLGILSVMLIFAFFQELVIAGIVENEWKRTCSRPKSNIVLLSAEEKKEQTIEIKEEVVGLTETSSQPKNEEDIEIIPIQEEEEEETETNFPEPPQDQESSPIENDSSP
Nature of the experiment: flow cytometry, human blood B cells, secondary antibody alone (background). For orientation: A flow cytometer gives signals particle by particle.

The target in experiment [2] is T1, human CD20. Nature of the experiment: flow cytometry, DHL-4 cells, secondary antibody alone (background).
For experiment [3], the target named is T1, human CD20. Nature of the experiment: flow cytometry, BJAB cells, secondary antibody alone (background).
Experiment [4] concerns the target T1, human CD20. Put plainly: flow cytometry, Raji cells, secondary antibody alone (background).
For experiment [5], the target named is T2, mouse CD20 (mouse, UniProt P19437 1-291).
T2 construct: whole, on cells; Endogenous mouse CD20 on primary B cells; also called cell-surface CD20
T2 sequence (looked up): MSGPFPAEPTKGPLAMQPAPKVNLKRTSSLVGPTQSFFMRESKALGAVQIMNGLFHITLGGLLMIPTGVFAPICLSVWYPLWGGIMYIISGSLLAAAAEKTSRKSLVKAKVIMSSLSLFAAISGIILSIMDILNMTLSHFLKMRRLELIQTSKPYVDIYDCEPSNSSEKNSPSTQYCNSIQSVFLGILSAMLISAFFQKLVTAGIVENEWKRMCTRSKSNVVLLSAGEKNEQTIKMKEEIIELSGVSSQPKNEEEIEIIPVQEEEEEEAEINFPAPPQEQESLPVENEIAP
Nature of the experiment: flow cytometry, mouse spleen CD19+ B cells, control staining (background).

The target in the next experiment is T3, mouse CD20 (mouse) (UniProt P19437).
T3 sequence (looked up): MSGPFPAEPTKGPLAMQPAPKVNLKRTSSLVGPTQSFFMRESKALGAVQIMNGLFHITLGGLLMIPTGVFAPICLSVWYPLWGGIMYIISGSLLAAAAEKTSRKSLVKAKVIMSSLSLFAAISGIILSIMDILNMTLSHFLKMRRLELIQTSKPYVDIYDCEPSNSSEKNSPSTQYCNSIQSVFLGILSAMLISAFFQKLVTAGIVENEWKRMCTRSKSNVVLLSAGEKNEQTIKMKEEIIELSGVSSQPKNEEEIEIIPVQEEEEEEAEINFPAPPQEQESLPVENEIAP
Nature of the experiment: flow cytometry, mouse spleen CD19+ B cells, mAb at 0.5 µg/mL, isotype-specific secondary antibody.

In experiment [6] the target is T2, mouse CD20. Described as above. Here is the method:
Twelve mouse anti-mouse CD20 monoclonal antibodies, with representatives of each IgG isotype, were assessed for their ability to bind B cells and deplete them in vivo. Each monoclonal antibody reacted uniformly with CD19⁺ primary B cells in vitro with characteristic mean fluorescence intensities that were independent of monoclonal antibody isotype (FIG. 6A). When monoclonal antibody reactivity with primary B cells was assessed over a range of monoclonal antibody concentrations, most monoclonal antibodies reached saturating levels of staining when used at concentrations between 1-10 μg/mL (FIG. 6B). […] When all monoclonal antibodies were used at 0.5 μg/mL, each monoclonal antibody reacted uniformly with CD19⁺ primary B cells with characteristic low to high mean fluorescence intensities (FIG. 6C, Table 5). Similar results were obtained using a mouse CD20 cDNA-transfected pre-B cell line with anti-mouse Ig secondary antibody. Based on this analysis, the MB20-1 monoclonal antibody represented monoclonal antibodies with the lowest relative affinity/avidity, while the MB20-18 monoclonal antibody reacted strongly with B cells and stained B cells at the highest levels of all 12 anti-CD20 monoclonal antibodies (Table 5).

In experiment [7] the target is T2, mouse CD20. Put plainly: indirect immunofluorescence, flow cytometry, cultured mouse spleen B cells at 37 C. Further details: reference not given here.
Experiment [8] deals with T1, human CD20. Put plainly: indirect immunofluorescence, flow cytometry, BJAB cells, saturating mAb. As to the method: (§1) Reactivity of human blood lymphocytes and the Raji, BJAB or DHL-4 B lymphoblastoid cell lines with anti-CD20 monoclonal antibodies at saturating concentrations or with secondary antibody alone (control). The anti-CD20 monoclonal antibodies were used at concentrations that were determined to be saturating and that gave optimal staining. 1F5, B9E9 and 1H4 (IgG2a) monoclonal antibodies were used as ascites fluid diluted 1:200. HB20-3, -4 and -25 monoclonal antibodies were used as tissue culture supernatant fluid. B1 monoclonal antibody was used at either 10 μg/mL of purified monoclonal antibody or as tissue culture supernatant fluid. In all cases, monoclonal antibody staining was visualized using PE-conjugated isotype-specific secondary antibodies with flow cytometry analysis. Values represent the mean linear fluorescence intensity of staining for each B cell population as determined by flow cytometry analysis. Results are representative of those obtained in ≧3 experiments.

Experiment [9] concerns the target T1, human CD20. Put plainly: indirect immunofluorescence, flow cytometry, human blood B cells, saturating mAb. Here is the method: as §1
The target of experiment [10] is T1, human CD20. Nature of the experiment: indirect immunofluorescence, flow cytometry, DHL-4 cells, saturating mAb. Here is the method: as §1
For experiment [11], the target named is T1, human CD20. Put plainly: indirect immunofluorescence, flow cytometry, Raji cells, saturating mAb. Here is the method:
as §1

A value given as a limit tells only on which side of the number the result lay.

As to secondary antibody alone (control), the mean linear fluorescence intensity (mean linear fluorescence intensity) stood at 1 with human CD20 [1], 1 in the experiment with human CD20 [2], 10 in the experiment with human CD20 [3] and 3 in the experiment with human CD20 [4].
On to “isotype-matched control monoclonal antibodies (antibody)”, for which the B cell reactivity (mean linear fluorescence intensity) (mean linear fluorescence intensity) in the experiment with mouse CD20 [5] is under 6.

B1: MB20-16 monoclonal antibody (antibody, part only; not given: light chain, V domains shown, part only)
VH: EVQLQESGPELVKPGASVKMSCKASGYTFTDYNLHWVKQSHGQSLEWIGYINPNNGGATYNQKFTGKATLTVNRSSSTAYMELRSLTSDDSAVYYCAEIYDGYYWGQGTTLTVSS
B1 gave a B cell reactivity (mean linear fluorescence intensity) (mean linear fluorescence intensity) in the experiment with mouse CD20 (mouse) of 170.

B2: MB20-11 monoclonal antibody (antibody, part only; not given: light chain, V domains shown, part only)
VH: EVQLQESGPELVKPGASVKMSCKASGYKITDYNMHWVKQSHGKSLEWIGYIAPYNGGTTYNQKFKGKATLTVNKSSSTAYMELRSLTSEDSAVYYCAGALDYWGQGTSVTVSS
Regarding B2, the B cell reactivity (mean linear fluorescence intensity) (mean linear fluorescence intensity) with mouse CD20 [6] came out at 158. The increase in antibody binding over time in the experiment with mouse CD20 [7] turned out to be 97%.

B3: 1H4 (IgG2a) anti-CD20 monoclonal antibody (antibody)
chain 1: QVQLQQPGAELVKPGASVKMSCKTSGYTFTSYNVHWVKQTPGQGLEWIGAIYPGNGDTSFNQKFKGKATLTADKSSSTVYMQLSSLTSEDSAVYYCARSNYYGSSYVWFFDVWGAGTTGTGSS
chain 2: QIVLSQSPTILSASPGEKVTMTCRASSSVSYMDWYQQKPGSSPKPWIYATSNLASGVPARFSGSGSGTSYSLTISRVEAEDAATYYCQQWISNPPTFGAGTKLELK
On to B3, for which the “mean linear fluorescence intensity” value with human CD20 [8] was 240 mean linear fluorescence intensity; in the experiment with human CD20 [9], 75 mean linear fluorescence intensity; in the experiment with human CD20 [10], 98 mean linear fluorescence intensity; in the experiment with human CD20 [11], 244 mean linear fluorescence intensity.
